From US20210032299A1 (Eli Lilly, published 2021)
Starred links: 1 amine or outer side, 2 acyl side, 3 side chain; linkers in the order of their positions; H or OH if unused. Non-standard residues stand in square brackets, D forms with d. Groups on a side chain read outwards from the residue. No end group written: not given here. *: point of attachment. C20 diacid = O=C(O)CCCCCCCCCCCCCCCCCCC(=O)*; γGlu = O=C(O)[C@H](CCC(=O)[*:2])N[*:1]; αMeL = CC(C)C[C@](C)(N)C(=O)O; AEEA = NCCOCCOCC(=O)O; Aib = CC(C)(N)C(=O)O

T1: human glucose-dependent insulinotropic polypeptide (GIP) receptor (human, UniProt P48546 22-466)
T1 construct: whole, on cells; Assayed as crude membranes of stably transfected CHO cells; also called hGIPR; human GIP receptor
T1 sequence (looked up): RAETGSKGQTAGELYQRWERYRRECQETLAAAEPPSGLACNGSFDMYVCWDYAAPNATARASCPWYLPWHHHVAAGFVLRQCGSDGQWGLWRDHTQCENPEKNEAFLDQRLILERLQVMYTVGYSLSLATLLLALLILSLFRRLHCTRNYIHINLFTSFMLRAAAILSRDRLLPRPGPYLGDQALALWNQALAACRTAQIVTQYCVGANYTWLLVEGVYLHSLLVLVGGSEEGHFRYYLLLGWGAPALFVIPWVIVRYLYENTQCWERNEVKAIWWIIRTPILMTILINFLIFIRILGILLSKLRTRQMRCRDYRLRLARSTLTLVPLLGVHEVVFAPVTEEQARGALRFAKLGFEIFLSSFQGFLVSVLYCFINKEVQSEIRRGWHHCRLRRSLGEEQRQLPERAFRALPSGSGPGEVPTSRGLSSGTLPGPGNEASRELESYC

B1: Example 66 (peptide)
peptide: Y[Aib]EGTFISDYSI[αMeL]LDKK([AEEA-AEEA-γGlu-C20 diacid])HQ[Aib]DFVEYLLETGPSSGAPPPS-NH2
modifications: N-terminus assumed
SMILES: CC[C@H](C)[C@H](NC(=O)[C@H](Cc1ccccc1)NC(=O)[C@@H](NC(=O)CNC(=O)[C@H](CCC(=O)O)NC(=O)C(C)(C)NC(=O)[C@@H](N)Cc1ccc(O)cc1)[C@@H](C)O)C(=O)N[C@@H](CO)C(=O)N[C@@H](CC(=O)O)C(=O)N[C@@H](Cc1ccc(O)cc1)C(=O)N[C@@H](CO)C(=O)N[C@H](C(=O)N[C@@](C)(CC(C)C)C(=O)N[C@@H](CC(C)C)C(=O)N[C@@H](CC(=O)O)C(=O)N[C@@H](CCCCN)C(=O)N[C@@H](CCCCNC(=O)COCCOCCNC(=O)COCCOCCNC(=O)CC[C@H](NC(=O)CCCCCCCCCCCCCCCCCCC(=O)O)C(=O)O)C(=O)N[C@@H](Cc1c[nH]cn1)C(=O)N[C@@H](CCC(N)=O)C(=O)NC(C)(C)C(=O)N[C@@H](CC(=O)O)C(=O)N[C@@H](Cc1ccccc1)C(=O)N[C@H](C(=O)N[C@@H](CCC(=O)O)C(=O)N[C@@H](Cc1ccc(O)cc1)C(=O)N[C@@H](CC(C)C)C(=O)N[C@@H](CC(C)C)C(=O)N[C@@H](CCC(=O)O)C(=O)N[C@H](C(=O)NCC(=O)N1CCC[C@H]1C(=O)N[C@@H](CO)C(=O)N[C@@H](CO)C(=O)NCC(=O)N[C@@H](C)C(=O)N1CCC[C@H]1C(=O)N1CCC[C@H]1C(=O)N1CCC[C@H]1C(=O)N[C@@H](CO)C(N)=O)[C@@H](C)O)C(C)C)[C@@H](C)CC
B2: Example 72 (peptide)
peptide: Y[Aib]EGTLISDYSI[αMeL]LDKK([AEEA-AEEA-γGlu-C20 diacid])HQ[Aib]EFVEYLLETGPSSGAPPPS-NH2
modifications: N-terminus assumed
SMILES: CC[C@H](C)[C@H](NC(=O)[C@H](CC(C)C)NC(=O)[C@@H](NC(=O)CNC(=O)[C@H](CCC(=O)O)NC(=O)C(C)(C)NC(=O)[C@@H](N)Cc1ccc(O)cc1)[C@@H](C)O)C(=O)N[C@@H](CO)C(=O)N[C@@H](CC(=O)O)C(=O)N[C@@H](Cc1ccc(O)cc1)C(=O)N[C@@H](CO)C(=O)N[C@H](C(=O)N[C@@](C)(CC(C)C)C(=O)N[C@@H](CC(C)C)C(=O)N[C@@H](CC(=O)O)C(=O)N[C@@H](CCCCN)C(=O)N[C@@H](CCCCNC(=O)COCCOCCNC(=O)COCCOCCNC(=O)CC[C@H](NC(=O)CCCCCCCCCCCCCCCCCCC(=O)O)C(=O)O)C(=O)N[C@@H](Cc1c[nH]cn1)C(=O)N[C@@H](CCC(N)=O)C(=O)NC(C)(C)C(=O)N[C@@H](CCC(=O)O)C(=O)N[C@@H](Cc1ccccc1)C(=O)N[C@H](C(=O)N[C@@H](CCC(=O)O)C(=O)N[C@@H](Cc1ccc(O)cc1)C(=O)N[C@@H](CC(C)C)C(=O)N[C@@H](CC(C)C)C(=O)N[C@@H](CCC(=O)O)C(=O)N[C@H](C(=O)NCC(=O)N1CCC[C@H]1C(=O)N[C@@H](CO)C(=O)N[C@@H](CO)C(=O)NCC(=O)N[C@@H](C)C(=O)N1CCC[C@H]1C(=O)N1CCC[C@H]1C(=O)N1CCC[C@H]1C(=O)N[C@@H](CO)C(N)=O)[C@@H](C)O)C(C)C)[C@@H](C)CC
B3: Example 68 (peptide)
peptide: Y[Aib]EGTFISDYSI[αMeL]LDKK([AEEA-AEEA-γGlu-C20 diacid])HQ[Aib]DFVEYLLEAGPSSGAPPPS-NH2
modifications: N-terminus assumed
SMILES: CC[C@H](C)[C@H](NC(=O)[C@H](Cc1ccccc1)NC(=O)[C@@H](NC(=O)CNC(=O)[C@H](CCC(=O)O)NC(=O)C(C)(C)NC(=O)[C@@H](N)Cc1ccc(O)cc1)[C@@H](C)O)C(=O)N[C@@H](CO)C(=O)N[C@@H](CC(=O)O)C(=O)N[C@@H](Cc1ccc(O)cc1)C(=O)N[C@@H](CO)C(=O)N[C@H](C(=O)N[C@@](C)(CC(C)C)C(=O)N[C@@H](CC(C)C)C(=O)N[C@@H](CC(=O)O)C(=O)N[C@@H](CCCCN)C(=O)N[C@@H](CCCCNC(=O)COCCOCCNC(=O)COCCOCCNC(=O)CC[C@H](NC(=O)CCCCCCCCCCCCCCCCCCC(=O)O)C(=O)O)C(=O)N[C@@H](Cc1c[nH]cn1)C(=O)N[C@@H](CCC(N)=O)C(=O)NC(C)(C)C(=O)N[C@@H](CC(=O)O)C(=O)N[C@@H](Cc1ccccc1)C(=O)N[C@H](C(=O)N[C@@H](CCC(=O)O)C(=O)N[C@@H](Cc1ccc(O)cc1)C(=O)N[C@@H](CC(C)C)C(=O)N[C@@H](CC(C)C)C(=O)N[C@@H](CCC(=O)O)C(=O)N[C@@H](C)C(=O)NCC(=O)N1CCC[C@H]1C(=O)N[C@@H](CO)C(=O)N[C@@H](CO)C(=O)NCC(=O)N[C@@H](C)C(=O)N1CCC[C@H]1C(=O)N1CCC[C@H]1C(=O)N1CCC[C@H]1C(=O)N[C@@H](CO)C(N)=O)C(C)C)[C@@H](C)CC
B4: Example 73 (peptide)
peptide: Y[Aib]EGTLISDYSI[αMeL]LDKK([AEEA-AEEA-γGlu-C20 diacid])HQ[Aib]EFVEYLLEGGPSSGAPPPS-NH2
modifications: N-terminus assumed
SMILES: CC[C@H](C)[C@H](NC(=O)[C@H](CC(C)C)NC(=O)[C@@H](NC(=O)CNC(=O)[C@H](CCC(=O)O)NC(=O)C(C)(C)NC(=O)[C@@H](N)Cc1ccc(O)cc1)[C@@H](C)O)C(=O)N[C@@H](CO)C(=O)N[C@@H](CC(=O)O)C(=O)N[C@@H](Cc1ccc(O)cc1)C(=O)N[C@@H](CO)C(=O)N[C@H](C(=O)N[C@@](C)(CC(C)C)C(=O)N[C@@H](CC(C)C)C(=O)N[C@@H](CC(=O)O)C(=O)N[C@@H](CCCCN)C(=O)N[C@@H](CCCCNC(=O)COCCOCCNC(=O)COCCOCCNC(=O)CC[C@H](NC(=O)CCCCCCCCCCCCCCCCCCC(=O)O)C(=O)O)C(=O)N[C@@H](Cc1c[nH]cn1)C(=O)N[C@@H](CCC(N)=O)C(=O)NC(C)(C)C(=O)N[C@@H](CCC(=O)O)C(=O)N[C@@H](Cc1ccccc1)C(=O)N[C@H](C(=O)N[C@@H](CCC(=O)O)C(=O)N[C@@H](Cc1ccc(O)cc1)C(=O)N[C@@H](CC(C)C)C(=O)N[C@@H](CC(C)C)C(=O)N[C@@H](CCC(=O)O)C(=O)NCC(=O)NCC(=O)N1CCC[C@H]1C(=O)N[C@@H](CO)C(=O)N[C@@H](CO)C(=O)NCC(=O)N[C@@H](C)C(=O)N1CCC[C@H]1C(=O)N1CCC[C@H]1C(=O)N1CCC[C@H]1C(=O)N[C@@H](CO)C(N)=O)C(C)C)[C@@H](C)CC
B5: Example 71 (peptide)
peptide: Y[Aib]EGTFISDYSI[αMeL]LDKK([AEEA-AEEA-γGlu-C20 diacid])HQ[Aib]DFVEWLLETGPSSGAPPPS-NH2
modifications: N-terminus assumed
SMILES: CC[C@H](C)[C@H](NC(=O)[C@H](Cc1ccccc1)NC(=O)[C@@H](NC(=O)CNC(=O)[C@H](CCC(=O)O)NC(=O)C(C)(C)NC(=O)[C@@H](N)Cc1ccc(O)cc1)[C@@H](C)O)C(=O)N[C@@H](CO)C(=O)N[C@@H](CC(=O)O)C(=O)N[C@@H](Cc1ccc(O)cc1)C(=O)N[C@@H](CO)C(=O)N[C@H](C(=O)N[C@@](C)(CC(C)C)C(=O)N[C@@H](CC(C)C)C(=O)N[C@@H](CC(=O)O)C(=O)N[C@@H](CCCCN)C(=O)N[C@@H](CCCCNC(=O)COCCOCCNC(=O)COCCOCCNC(=O)CC[C@H](NC(=O)CCCCCCCCCCCCCCCCCCC(=O)O)C(=O)O)C(=O)N[C@@H](Cc1c[nH]cn1)C(=O)N[C@@H](CCC(N)=O)C(=O)NC(C)(C)C(=O)N[C@@H](CC(=O)O)C(=O)N[C@@H](Cc1ccccc1)C(=O)N[C@H](C(=O)N[C@@H](CCC(=O)O)C(=O)N[C@@H](Cc1c[nH]c2ccccc12)C(=O)N[C@@H](CC(C)C)C(=O)N[C@@H](CC(C)C)C(=O)N[C@@H](CCC(=O)O)C(=O)N[C@H](C(=O)NCC(=O)N1CCC[C@H]1C(=O)N[C@@H](CO)C(=O)N[C@@H](CO)C(=O)NCC(=O)N[C@@H](C)C(=O)N1CCC[C@H]1C(=O)N1CCC[C@H]1C(=O)N1CCC[C@H]1C(=O)N[C@@H](CO)C(N)=O)[C@@H](C)O)C(C)C)[C@@H](C)CC

These binders were tested against T2, human glucagon receptor (human, UniProt P47871 26-477) (assay: SPA, displacement of [125I]-Gcg from hGcgR membranes, 0.1% bacitracin).
T2 construct: whole, on cells; Assayed as crude membranes of stably transfected HEK293 cells; also called hGcgR; GcgR
T2 sequence (P47871 26-477): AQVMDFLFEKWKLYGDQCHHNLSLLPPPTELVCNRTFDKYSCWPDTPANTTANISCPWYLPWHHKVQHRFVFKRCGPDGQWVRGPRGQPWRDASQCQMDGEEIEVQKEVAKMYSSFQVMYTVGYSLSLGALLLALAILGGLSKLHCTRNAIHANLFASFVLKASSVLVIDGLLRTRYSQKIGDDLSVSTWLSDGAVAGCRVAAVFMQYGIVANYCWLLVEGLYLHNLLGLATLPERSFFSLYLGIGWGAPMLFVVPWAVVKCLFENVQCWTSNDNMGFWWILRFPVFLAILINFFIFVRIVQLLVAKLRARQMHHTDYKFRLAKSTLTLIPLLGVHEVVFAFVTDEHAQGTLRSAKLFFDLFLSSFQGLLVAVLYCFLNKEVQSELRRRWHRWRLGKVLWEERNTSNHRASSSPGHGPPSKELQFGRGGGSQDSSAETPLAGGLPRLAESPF
In short: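 Binding buffer: 25 mM HEPES pH 7.4, 2.5 mM CaCl₂, 1 mM MgCl₂, 0.003% Tween-20, protease inhibitors without EDTA. Counted by scintillation after 12 h incubation/settling at room temperature. Four-parameter nonlinear fit; Kᵢ given as geometric mean ± SEM of independent replicates run on different days.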

Row | Binder | Ki
1 | B1 | 279 nM
2 | B2 | 837 nM
3 | B3 | 290 nM
4 | B4 | 292 nM
5 | B5 | 102 nM

These binders were tested against T3, human GLP-1 receptor (human, UniProt P43220 24-463) (assay: SPA, displacement of [125I]-GLP-1 from hGLP-1R membranes, 0.1% bacitracin).
T3 construct: whole, on cells; Assayed as crude membranes of stably transfected HEK293 cells; also called hGLP1R; hGLP-1R
In short: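 Binding buffer: 25 mM HEPES pH 7.4, 2.5 mM CaCl₂, 1 mM MgCl₂, 0.1% bacitracin, 0.003% Tween-20, protease inhibitors without EDTA. Four-parameter nonlinear regression; Kᵢ given as geometric mean ± SEM, n = independent replicates run on different days.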

Row | Binder | Ki
6 | B1 | 326 nM
7 | B2 | 437 nM
8 | B3 | 421 nM
9 | B4 | 117 nM
10 | B5 | 347 nM

These binders were tested against T1, human glucose-dependent insulinotropic … (assay: SPA, displacement of [125I]-GIP from hGIPR membranes, 0.1% bacitracin).

Row | Binder | Ki
11 | B1 | 0.0866 nM
12 | B2 | 0.0594 nM
13 | B3 | 0.0948 nM
14 | B4 | 0.036 nM
15 | B5 | 0.0422 nM
